In IntAct's records for PubMed 18192679:

B1: Huntingtin-associated protein 1 (Homo sapiens), P54257-2 (parent)
chain: MRPKRLGRCCAGSRLGPGDPAALTCAPSPSASPAPEPSAQPQARGTGQRVGSRATSGSQFLSEARTGARPASEAGAKAGARRPSAFSAIQGDVRSMPDNSDAPWTRFVFQGPFGSRATGRGTGKAAGIWKTPAAYVGRRPGVSGPERAAFIRELEEALCPNLPPPVKKITQEDVKVMLYLLEELLPPVWESVTYGMVLQRERDLNTAARIGQSLVKQNSVLMEENSKLEALLGSAKEEILYLRHQVNLRDELLQLYSDSDEEDEDEEEEEEEKEAEEEQEEEEAEEDLQCAHPCDAPKLISQEALLHQHHCPQLEALQEKLRLLEEENHQLREEASQLDTLEDEEQMLILECVEQFSEASQQMAELSEVLVLRLENYERQQQEVARLQAQVLKLQQRCRMYGAETEKLQKQLASEKEIQMQLQEEETLPGFQETLAEELRTSLRRMISDPVYFMERNYEMPRGDTSSLRYDFRYSEDREQVRGFEAEEGLMLAADIMRGEDFTPAEEFVPQEELGAAKKVPAEEGVMEEAELVSEETEGWEEVELELDEATRMNVVTSALEASGLGPSHLDMNYVLQQLANWQDAHYRRQLRWKMLQKGECPHGALPAASRTSCRSSCR

Variants of: B1
Details: with hd_human HTT

| effect of a mutation on the interaction | Variant |
| --- | --- |
| increasing interaction | T441M |
